Measured values: publication PMC11143242 (Nature Communications, 2024)

How the values were obtained:
Conditions in all cases: both partners purified
[1] = biological target: MPXV B6 (T20-H279) (Monkeypox virus, clade II …); assay: ELISA
[2] = biological target: MPXV B6 SCR1-2-3 (T20-K185) (Monkeypox virus, clade II …); assay: ELISA
[3] = biological target: MPXV B6 SCR1-2-3-4 (T20-N241) (Monkeypox virus, clade II …); assay: ELISA
[4] = biological target: CPXV CPXV199 (Cowpox virus, Brighton Red, UniProt Q8QMP6); assay: SPR
[5] = biological target: VARV B7 (Variola virus, India-1967, UniProt Q76QZ2); assay: SPR
[6] = biological target: MPXV B6 protein (Monkeypox virus, clade II …); assay: SPR; antibodies (0.5 ug/mL) […]; BIAcore 8K, 25 °C, […]; 1:1 Langmuir model
[7] = biological target: MPXV B6 SCR1-2 (T20-E129) (Monkeypox virus, clade II …); assay: ELISA

| Binder | binding result [1] | binding result [2] | binding result [3] | binding result [4] | binding result [5] | Kd [6] [nM] | binding result [7] |
| --- | --- | --- | --- | --- | --- | --- | --- |
| hMB621 (antibody, V domains shown) VH: QVQLVQSGGGVVQPGRSLRLSCVASGFSISTYPLHWVRQAPGKGLEWVAVISHDGRNKYYADSVKGRFSISRDNSKNTVYLQMNSLRVEDTAVYYCARAYPYAFDVWGQGTLVTVSS VL: EIVLTQSPATLSVSPGETATLSCRASQSVRNDLAWYQQKPGQAPRLLIYGASTRASGIPARFSGSGSGTEFTLTISSLQSEDFAIYYCQQYKDWPPWTFGQGTKVEIK | binds | binds | binds | binds | binds | 1.9 | – |
| hMB668 (antibody, V domains shown, also called MAb hMB668; source: Expi293F, transient transfection, purified (Protein A, gel filtration)) VH: QVQLVQSGAEVKKPGSSVKVSCKSSGGTFSDYAINWVRQAPGQGLEWMGRILPIVGVPNYAQKFQGRVTITADKSSSTAYKEVSGLRSEDTAVYYCARRSGINGHGLDVWGQGTTVIVSS VL: DIVMTQSPLSLPVTPGEPASISCRSSQSLLNTNGYNYLEWYLHKPGQSPQLLIYLGSHRASGVPDRFSGSGSGTDFTLKISRAEPEDVGVYYCMQTLQTQGYTFGQGTKLEIK | binds | binds | binds | binds | binds | 6.2 | binds |
